From patent US6444644B1, “Anticoagulant peptide fragments derived from apolipoprotein B-100” (University College London, priority 1996, dated 2002)

Key:
thromboplastin [1] = molecular target: T1, thromboplastin (Homo sapiens, UniProt P13726); test: Effect of thromboplastin peptide (58-66) on thromboplastin activity (one-stage prothrombin time assay); format: biochemical; conditions: for effect on the procoagulant activity of thromboplastin (in words) / Procoagulant Activity of thromboplastin: peptide 1 μM, thromboplastin 100 nM; for Procoagulant Activity of thromboplastin: 5 min, 37° C., distilled water 6.70 U/ml
T1 construct: purchased Gamidor Ltd. (Oxfordshire, U.K.)
T1 sequence (P13726 33-295): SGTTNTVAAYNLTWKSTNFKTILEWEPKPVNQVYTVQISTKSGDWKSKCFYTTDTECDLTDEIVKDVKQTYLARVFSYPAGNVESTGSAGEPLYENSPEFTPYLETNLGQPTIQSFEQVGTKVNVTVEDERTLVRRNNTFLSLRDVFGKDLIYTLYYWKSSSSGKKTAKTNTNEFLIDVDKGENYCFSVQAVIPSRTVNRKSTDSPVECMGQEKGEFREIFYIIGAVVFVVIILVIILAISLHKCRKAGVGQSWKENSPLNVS
Protocol: The control peptide ([…]) was reconstituted to 1 mM in distilled water. The control peptide was similar but not identical to the thromboplastin (58-66), in size, charge and amino acid composition but with a different sequence. In order to assess the effect of the thromboplastin peptide (58-66) on the activity of thromboplastin, samples of recombinant thromboplastin (100 nM) were incubated for 5 min, with the isolated thromboplastin-peptide ([…]), control peptide (1 μM) or distilled water at 37° C. prior to assaying using the one-stage prothrombin time assay. The activity was calculated from a thromboplastin standard curve.
Three aliquots of thromboplastin (100 nM) were incubated for 5 min, with the isolated thromboplastin peptide (1 μM), control peptide (1 μM) or distilled water at 37° C. prior to assaying using the one-stage prothrombin time assay. The activity was calculated from a thromboplastin standard curve. The data were obtained from 3 separate experiments.

[2] = molecular target: T2, interaction of thromboplastin with apo B-100 (Homo sapiens, UniProt P13726); test: Influence of peptide 58-66 on the inhibition of thromboplastin by apo B-100; format: biochemical; conditions: peptide 1 μM, thromboplastin 100 nM, apo B-100 250 nM, 37° C., up to 180 min
T2 construct: purchased Gamidor Ltd. (Oxfordshire, U.K.) for thromboplastin; apoB-100 isolated and reconstituted in house
T2 sequence (P13726 33-295): as above
Protocol: (250 nM final concentration) in the presence and absence of the isolated thromboplastin peptide (1 μM) or control peptide (1 μM), at 37° C. Aliquots (100 μl) were removed at the start and at various intervals up to 180 min and assayed by means of the one-stage prothrombin time assay. The residual activity of thromboplastin measured in the samples was compared to the initial activity, at time zero, and percentage inhibition calculated.
Samples of thromboplastin (100 nM) were incubated with reconstituted apo B-100 (250 nM final concentration) in the presence (▪) and absence (▾) of the isolated thromboplastin peptide (1 μM), at 37° C. Aliquots ([…]) were removed at the start (time zero) and at various intervals up to 180 min and assayed by means of the one-stage prothrombin time assay. The data presented are representative of 5 independent experiments.

[3] = system: T3, KRAD-14 peptide (recombinant, released from the biotinylated fusion protein with chymotrypsin)
T3 sequence: KAQSKKNKHRHSTT

thromboplastin [4] = molecular target: T1, thromboplastin; test: Time-course inhibition of thromboplastin procoagulant activity (one-stage prothrombin time and two-stage amidolytic assay); format: biochemical; conditions: 500 nM, 37° C.; for effect on thromboplastin (in words): up to 120 min
Protocol: The one stage prothrombin time assay was carried out by the addition of 100 μl of the sample to 100 μl of 25 mM CaCl2 solution and incubation prior to addition of 100 μl of control plasma. The clotting time was measured on the coagulometer. The two-stage amidolytic assay was carried according to published procedures. In all cases the thromboplastin activity was calculated from a standard curve prepared previously and the percentage inhibition was calculated as 100×[…].
The apolipoprotein B-100 control peptide (fragment 3358-3372) containing the sequence TRLTRKRGLKLATAL was reconstituted in distilled water to 1 mM. The freeze-dried samples were reconstituted in distilled water to a concentration of 1 mM. Two 200 μl samples of thromboplastin (10 U/ml) were incubated with 500 nM KRAD-14 or apolipoprotein B-100 control peptide at 37° C. for 45 min. Another set of 200 μl samples of thromboplastin (10 U/ml) were incubated with either 500 nM KRAD-98 or the chloramphenicol acetyltransferase control protein. […] Following the incubation the thromboplastin activity in all the samples was measured by means of the one-stage prothrombin time assay and the two-stage amidolytic assay and the percentage inhibition calculated against the control containing distilled water.
The above experiments were repeated using 1 ml samples containing recombinant thromboplastin (10 U/ml) mixed with either 500 nM KRAD-14, 500 nM KRAD-98 or 500 nM apolipoprotein B-100, reconstituted as described before. The concentrations used are equivalent to that of apolipoprotein B-100 in normal plasma. 100 μl of the each sample was removed immediately and assayed for thromboplastin activity, by means of the one-stage prothrombin time assay. The rest of the samples were incubated at 37° C. and further 100 μl samples were removed at intervals up to 120 min and measured as before. The percentage inhibition was calculated against a control sample of thromboplastin.
Three 1 ml samples containing recombinant thromboplastin (10 U/ml) were mixed with 500 nM KRAD-14 (solid square), 500 nM KRAD-98 (open square) or 500 nM apolipoprotein […] (triangle), reconstituted as described before. The concentrations used are equivalent to that of apolipoprotein B-100 in normal plasma. 100 μl of the each sample was removed immediately and assayed for thromboplastin activity, by means of the one-stage prothrombin time assay. The rest of the samples were incubated at 37° C. and further 100 μl samples were removed at intervals up to 120 min and measured as before. The thromboplastin activity was calculated from a standard curve prepared previously and the percentage inhibition was calculated as 100×[…]. The curves are typical of data from four sets of experiments.

[5] = molecular target: T4, thromboplastin, reconstituted in phosphatidylcholine (Homo sapiens, UniProt P13726); test: Inhibition of delipidated thromboplastin reconstituted in phosphatidylcholine; format: biochemical; conditions: 500 nM sample, 37° C., 30 min; for Procoagulant Activity: distilled water control 4.70 U/ml
T4 construct: purchased Gamidor Ltd. (Oxfordshire, U.K.)
T4 sequence (P13726 33-295): as above
Protocol: In other experiments, recombinant thromboplastin (1 mg/ml) was delipidated with chloroform/methanol as described previously, to remove phosphatidylserine and other lipids and reconstituted with phosphatidylcholine (1 mg/ml) to differentiate between the effects of the prepared samples on the protein moiety of thromboplastin and any effects on the thromboplastin-associated phosphatidylserine. […] The percentage inhibition was calculated against the control sample.
Recombinant thromboplastin was delipidated to remove phosphatidylserine and other lipids and reconstituted at 1 mg/ml with phosphatidylcholine (1 mg/ml). […] The % Inhibition was calculated against the control. The data were obtained from 3 separate experiments.

[6] = molecular target: recombinant thromboplastin (UniProt P13726 33-295, limits assumed); test: cell-based or functional assay
thromboplastin [7] = molecular target: T1, thromboplastin; test: Inhibition of thromboplastin in the presence of plasma; format: biochemical
Protocol: […] The samples were then assayed by addition of 100 μl of […] CaCl2 solution and measurement on the coagulometer. The percentage inhibition in each case calculated against a similarly treated sample, containing thromboplastin only.

DLTDEIVKD [thromboplastin-derived peptide (58-66), recombinant peptide of thromboplastin residues 58-66]
effect on the procoagulant activity of thromboplastin (in words) (thromboplastin [1]): enhanced the procoagulant activity of thromboplastin | endogenous procoagulant activity of the peptide (thromboplastin [1]; peptide alone): no endogenous procoagulant activity | Procoagulant Activity of thromboplastin (thromboplastin [1]): Peptide 56-66 (7.45 U/ml) | effect on the rate of inhibition of thromboplastin activity by reconstituted apo B-100 [2]: accelerated the rate of inhibition of thromboplastin activity

VQGEESDNK [Control peptide]
effect on the procoagulant activity of thromboplastin (in words) (thromboplastin [1]): did not have any significant effect | Procoagulant Activity of thromboplastin (thromboplastin [1]): Control peptide (6.75 U/ml)

thrombin
clotting ability and amidolytic proteolytic activity of thrombin (100 nM) after incubation with 500 nM peptide [3]: The KRAD-14 peptide (500 nM) did not affect either the clotting ability or the amidolytic proteolytic activity of thrombin (100 nM)

TRLTRKRGLKLATAL [APO B-100 control peptide (3358-3372), apolipoprotein B-100 control peptide purchased from Sigma, reference compound]
effect on thromboplastin (in words) (thromboplastin [4]; listed as cationic peptide from apolipoprotein B-100 (fragment 3358-3372)): had no effect | effect on thromboplastin (in words) (thromboplastin [4]; listed as control 15 mer apolipoprotein B-100 (fragment 3358-3372) peptide): neither the control 15 mer apolipoprotein B-100 (fragment 3358-3372) peptide nor the chloramphenicol acetyltransferase control protein had any detectable effect | Procoagulant Activity [5]: (3358-3372) (4.68 U/ml)

reconstituted apolipoprotein B-100 (from UniProt P04114 28-4563)
% Inhibition of thromboplastin delipidated and reconstituted in phosphatidylcholine; 500 nM, 30 min, 37 C [6]: 62% | Procoagulant Activity left of thromboplastin reconstituted in phosphatidylcholine; 500 nM, 30 min, 37 C [6]: 1.79 U/ml | inhibition of procoagulant activity of thromboplastin, time course (FIG. 1), 70 min [6]: > 90%

Reconstituted apolipoprotein B-100: apolipoprotein B-100 isolated from LDL by delipidation and gel filtration, reconstituted in phosphatidylcholine
inhibition of the procoagulant activity of thromboplastin (thromboplastin [4]; 90 min incubation): > 95% | % Inhibition ([5]; against distilled water control): 62% | Procoagulant Activity [5]: (1.79 U/ml)

TRLTRKRGLKLATAL [apolipoprotein B-100 control peptide (fragment 3358-3372)]
% Inhibition of thromboplastin delipidated and reconstituted in phosphatidylcholine; 500 nM, 30 min, 37 C [6]: 0.4% | Procoagulant Activity left of thromboplastin reconstituted in phosphatidylcholine; 500 nM, 30 min, 37 C [6]: 4.68 U/ml

KAQSKKNKHRHSTT [KRAD-14 peptide (recombinant, released from the biotinylated fusion protein with chymotrypsin)]
% Inhibition of thromboplastin delipidated and reconstituted in phosphatidylcholine; 500 nM, 30 min, 37 C [6]: 99% | Procoagulant Activity left of thromboplastin reconstituted in phosphatidylcholine; 500 nM, 30 min, 37 C [6]: 0.05 U/ml

B1: KRAD-98 peptide (recombinant, released with enterokinase) (peptide)
peptide: LKDESLWEKTGLKEFLKTTKQSFDLSVKAQYKKNKHRHSITNPLAVLCEFISQSIKSFDRHFEKNRNNALDFVTKSYNETKIKFDKYKAEKSHDELPR
% Inhibition of thromboplastin delipidated and reconstituted in phosphatidylcholine; 500 nM, 30 min, 37 C [6]: 85% | Procoagulant Activity left of thromboplastin reconstituted in phosphatidylcholine; 500 nM, 30 min, 37 C [6]: 0.71 U/ml | inhibition of the procoagulant activity of thromboplastin (thromboplastin [4]; 45 min incubation): 95% | influence of plasma on the ability to inhibit thromboplastin activity (in words) (thromboplastin [7]; plasma included during the incubation prior to assaying, peptide 500 nM): did not significantly affect | inhibition of thromboplastin activity in the presence of plasma (thromboplastin [7]; plasma present, 37° C., 40 min incubation): 95% | Procoagulant Activity [5]: (0.71 U/ml)
